# Test results reported in patent publication US6613506B1, “Compositions and methods for inhibiting human immunodeficiency virus infection by down-regulating human cellular genes” (Subsidiary No. 3, Inc., priority 2000, dated 2003).
# B1: CF-527: GSE, SEQ ID NO:41; eukaryotic release factor 1 gene; acts through a peptide (nucleic acid, listed as Homo sapiens)
# DNA: CGTTTAAGAATGGAAAAGCGACATAACTATGTTCGGAAAGTAGCAGAGACTGCTGTGCAGCTGTTTATTTCTGGGGACAAAGTGAATGTGGCTGGTCTAGTTTTAGCTGGATCCGCTC
# modifications: chemistry not fully specified
# notes: eukaryotic release factor 1 gene; acts through a peptide
# B2: CF-653: GSE, SEQ ID NO:67, antisense; MIP-1 alpha gene (nucleic acid, listed as Homo sapiens)
# antisense: CCCACATTCCGTCACCTGCTCAGAATCATGCAGGTCTCCACTGCTGCCCTTGCTGTCCTCCTCTGCACCATGGCTCTCTGCAACCAGTTCTCTGCATCACTTGCTGCTGACACG
# B3: CF-684: GSE, SEQ ID NO:91, sense; human tumorous imaginal disc protein gene (nucleic acid, listed as Homo sapiens)
# sense: AATCATTGTTTTTTCCTTTGTAAATGTTGATTCAGAAAAGGAAAGCACAGGCTAAGCAGTTGAAGGTTCCCCACCATTCAGTGAGAGCAG
# B4: CF-685: GSE, SEQ ID NO:93, antisense; cell surface heparin binding protein gene (nucleic acid, listed as Homo sapiens)
# antisense: TCGGGAGCCGCGGCTTATGGTGCAGACATGGCCAAGTCCAAGAACCACACCACACACAACCAGTCCCGAAAATGGCACAGAAATGGTATCAAGAAACCCCGAT
# B5: CF-673: GSE, SEQ ID NO:73, antisense; BBC-1 gene (nucleic acid, listed as Homo sapiens)
# antisense: TCATCACTGAGGAAGAGAAGAATTTCAAAGCCTTCGCTAGTCTCCGTATGGCCCGTGCCAACGCCCGGCTCTTCGGCACACGGGCAAAA
# B6: CF-660: GSE, SEQ ID NO:79, antisense; human hsp90 chaperone protein gene (nucleic acid, listed as Homo sapiens)
# antisense: GAGAGGGGGGATCTCATCAGGAACTGCAGCATTGGGTTCCTCTGCTGCCACTTCATCTTCATCAAT
# B7: CF-674: GSE, SEQ ID NO:69, sense; human translationally controlled tumor protein 1 gene (nucleic acid, listed as Homo sapiens)
# sense: CTCTGTTCTTCAAGTTTCCCTTTGATTGATTTCATGTAATCTTTGATGTACTTCTTGTAGGCTTCTTTTGTGAAACTTGTTT
# B8: CF-676: GSE, SEQ ID NO:63, antisense; alpha enolase gene (nucleic acid, listed as Homo sapiens)
# antisense: GTACAACCAGCTCCTCAGAATTGAAGAGGAGCTGGGCAGCAAGGCTAAGTTTGCCGGCAGGAACTTCAGAAACCCCTTGGCCAAGTAAGCTGTGGGCAGGCAAGCCCTTCGGTCACCTGTTGGCT
# B9: CF-681: GSE, SEQ ID NO:85, antisense; FK506-binding protein A1 gene (nucleic acid, listed as Homo sapiens)
# antisense: TGGGGGAAGGGTGCAGCAACGATTTCTCACCAAATCACTACACAGGACAGCAAAGGGGTGAGAAGGGGCTGAGGGAGGAAAAGCCAGGAAACTGAGATCAGCAGAGGGAGCCAAGCATCAAAAAACAGGAGATGCTGAAGCTGCGATGACCAGCATCATTTTCTTAAGAGAACATTCAAGGATTTGTCATGATGGCTGGGCTTTCACTTGGTGTTAAGTCTACAAACAGCACCTTCAATTGGAACTGTCAATTAAAGTTCTTAAGATTTAGGAAGTGGTGGAGCTTGGAAAGTTATGAGATTACAAAATTTCTGAAAGTC
# How the values were obtained:
# HIV = test: Selection of GSEs from PBMC library using CEM-ss cells; format: cell-based
# Protocol: A cell-derived random fragment library (RFL) was constructed using cDNA from peripheral blood mononuclear cells (PBMC). Four buffy coats were obtained from four healthy blood donors and PBMCs were purified by Ficoll gradient centrifugation followed by stimulation with PHA (1 μg/mL). Cells were removed at 5, 10, and 24 hours after the addition of PHA and total RNA was isolated by Trizol extraction. All time points from all donors were then pooled. Polyadenylated mRNA was purified from the total RNA by passages through an oligo-dT column. cDNA was synthesized from the polyadenylated RNA with random primers using the Gibco Superscript Choice system for cDNA Synthesis (Gibco BRL, Rockville, Md.). The cDNA was normalized using the PCR-Select cDNA Subtraction kit (Clontech, Palo Alto, Calif.) based on the suppression subtractive hybridization methods of Diatchenko et al. (1996, Proc. Natl. Acad. Sci. USA 93, 6025-6030, 1996). The primers used for the normalization were: […]
# The normalized random fragments were digested with XhoI and Sse83871, purified on quick spin columns (available from Qiagen, Valencia, Calif.) and ligated into the SseI/XhoI site of a bicistronic retroviral vector, EMCVNgfrMPBIN. This vector was based on LXSNgfr as described in Dunn el al. (1999, Gene Therapy 6:130-137). Modifications included substitution of the Moloney murine leukemia virus LTR with the hybrid LTR described by Baum et al., 1995, (J. Virol. 69:7541-7547) and replacement of the SV40 promoter with encephalomyocarditis virus (EMCV) internal ribosomal entry site isolated from the plasmid, pCITE (available from Amersham, Arlington Heights, Ill.). The ligation mix was then transformed into competent cells. The total plasmid was purified from approximately 50 million clones.
# The PBMC library was screened using the methods described above in Section 1F. A total of 14 GSEs were isolated using CEM-ss cells. […] The complement of SEQ ID NO:69 is represented by SEQ ID NO:70. CF-675 (SEQ ID NO:71) is another GSE that has substantial sequence identity with a gene encoding human translationally controlled tumor protein 1 (GenBank Accession No. HUMCH13C4A). The complement of SEQ ID NO:71 is represented by SEQ ID NO:72. CF-679 (SEQ ID NO:83) is another GSE that has substantial sequence identity with a gene encoding human translationally controlled tumor protein 1 (GenBank Accession No. HUMCH13C4A). The complement of SEQ ID NO:83 is represented by SEQ ID NO:84. […] The complement of SEQ ID NO:75 is represented by SEQ ID NO:76. […] The complement of SEQ ID NO:79 is represented by SEQ ID NO:80. […] The complement of SEQ ID NO:67 is represented by SEQ ID NO:68. […] The complement of SEQ ID NO:63 is represented by SEQ ID NO:64. CF-675 (SEQ ID NO:65) is another GSE that has substantial sequence identity with a gene encoding alpha enolase protein. The complement of SEQ ID NO:65 is represented by SEQ ID NO:66. […] The complement of SEQ ID NO:73 is represented by SEQ ID NO:74. […] The complement of SEQ ID NO:81 is represented by SEQ ID NO:82. […] The complement of SEQ ID NO:85 is represented by SEQ ID NO:86. […] The complement of SEQ ID NO:89 is represented by SEQ ID NO:90. […] The complement of SEQ ID NO:91 is represented by SEQ ID NO:92. […] The complement of SEQ ID NO:93 is represented by SEQ ID NO:94. Another member of the cluster is CF-686 (SEQ ID NO:95), also having substantial sequence identity with a gene encoding cell surface heparin binding protein (Liu et al., ibid.). The complement of SEQ ID NO:95 is represented by SEQ ID NO:96.
# HIV-1IIIB = test: Selection of GSEs from HeLa cell library using productive infection of CEM-ss cells; format: cell-based
# Protocol: Additionally, a normalized RFE library made from HeLa cells was transferred into CEM-ss cells and the neo resistant population was infected with TCID50 of 3000/10^6 cells of HIV-1IIIB. This RFE library was represented by 50×10^6 independent recombinant clones. Four and seven days after infection, a purified anti-CD4 monoclonal antibody, L77 (available from Becton Dickinson), was added at 5 Φg/mL to prevent syncytia formation. Syncytia formation is thought to be prevented by blocking the interaction between gp120 expressed on the surface of an infected cell and CD4 on the surface of an uninfected cell. […] At 10-12 days after infection, CD4^+, p24^− cell population representing uninfected cells were sorted. Genomic DNA from the CD4^+, p24^− cells was purified and used for PCR amplification of inserts with the vector-derived primers. The amplified mixture was digested with EcoRI and BamHI and cloned back into the retroviral vector. The selection was repeated for additional rounds.
# The selection of GSEs from HeLa cell library using productive infection of CEM-ss cells isolated […] additional nucleic acid molecules which have substantial sequence identity with other cellular genes.
# The selection of GSEs from a HeLa cell library using productive infection of CEM-ss cells isolated 21 additional nucleic acid molecules which have substantial sequence identity with other cellular genes. […] The complement of SEQ ID NO:25 is represented by SEQ ID NO:26. […] The complement of SEQ ID NO:27 is represented by SEQ ID NO:28. […] The complement of SEQ ID NO:29 is represented by SEQ ID NO:30. […] The complement of SEQ ID NO:31 is represented by SEQ ID NO:32. […] The complement of SEQ ID NO:33 is represented by SEQ ID NO:34. […] The complement of SEQ ID NO:35 is represented by SEQ ID NO:36. […] The complement of SEQ ID NO:37 is represented by SEQ ID NO:38. […] The complement of SEQ ID NO:39 is represented by SEQ ID NO:40. […] The complement of SEQ ID NO:41 is represented by SEQ ID NO:42. […] The complement of SEQ ID NO:43 is represented by SEQ ID NO:44. […] The complement of SEQ ID NO:45 is represented by SEQ ID NO:46. […] The complement of SEQ ID NO:47 is represented by SEQ ID NO:48. […] The complement of SEQ ID NO:49 is represented by SEQ ID NO:50. […] The complement of SEQ ID NO:51 is represented by SEQ ID NO:52. […] The complement of SEQ ID NO:53 is represented by SEQ ID NO:54. […] The complement of SEQ ID NO:55 is represented by SEQ ID NO:56. […] The complement of SEQ ID NO:57 is represented by SEQ ID NO:58. […] The complement of SEQ ID NO:59 is represented by SEQ ID NO:60. […] The complement of SEQ ID NO:61 is represented by SEQ ID NO:62. […] The complement of SEQ ID NO:77 is represented by SEQ ID NO:78. […] The complement of SEQ ID NO:87 is represented by SEQ ID NO:88. […] The complement of SEQ ID NO:99 is represented by SEQ ID NO:100. […] The complement of SEQ ID NO:101 is represented by SEQ ID NO:102. […] The complement of SEQ ID NO:103 is represented by SEQ ID NO:104. […] The complement of SEQ ID NO:105 is represented by SEQ ID NO: 106. […] The complement of SEQ ID NO:107 is represented by SEQ ID NO:108. […] The complement of SEQ ID NO:109 is represented by SEQ ID NO:110. […] The complement of SEQ ID NO:111 is represented by SEQ ID NO:112. […] The complement of SEQ ID NO:113 is represented by SEQ ID NO:114. […] The complement of SEQ ID NO:115 is represented by SEQ ID NO:116. […] The complement of SEQ ID NO:117 is represented by SEQ ID NO:118.
molecule,measurement,setting,value
"CF-693: GSE, SEQ ID NO:75, sense; NEF interacting protein gene (sense GATTCTCAGCTGGTAGCTGGTGTTGCATTCAAGAAGACTTTCTCTTACGCTGGGTT; listed as Homo sapiens)",HIV-suppressive activity of the GSE and active orientation,HIV,interferes with HIV replication in a sense orientation
B1,HIV-suppressive activity of the GSE and active orientation,HIV-1IIIB,a peptide from which interferes with HIV replication
B2,HIV-suppressive activity of the GSE and active orientation,HIV,interferes with HIV replication as an antisense molecule
B3,HIV-suppressive activity of the GSE and active orientation,HIV,interferes with HIV replication in a sense orientation
B4,HIV-suppressive activity of the GSE and active orientation,HIV,interfere with HIV replication as an antisense molecule
B5,HIV-suppressive activity of the GSE and active orientation,HIV,interferes with HIV replication as an antisense molecule
B6,HIV-suppressive activity of the GSE and active orientation,HIV,interferes with HIV replication as an antisense molecule
B7,HIV-suppressive activity of the GSE and active orientation,HIV,interferes with HIV replication in a sense orientation
B8,HIV-suppressive activity of the GSE and active orientation,HIV,interferes with HIV replication as an antisense molecule
B9,HIV-suppressive activity of the GSE and active orientation,HIV,interferes with HIV replication as an antisense molecule
